Changes are numbered by the printed parent chain.
T1: GAL4AC-IN-2 (HIV-2, UniProt P04584 1172-1464)
T1 construct: domain: integrase
T1 sequence: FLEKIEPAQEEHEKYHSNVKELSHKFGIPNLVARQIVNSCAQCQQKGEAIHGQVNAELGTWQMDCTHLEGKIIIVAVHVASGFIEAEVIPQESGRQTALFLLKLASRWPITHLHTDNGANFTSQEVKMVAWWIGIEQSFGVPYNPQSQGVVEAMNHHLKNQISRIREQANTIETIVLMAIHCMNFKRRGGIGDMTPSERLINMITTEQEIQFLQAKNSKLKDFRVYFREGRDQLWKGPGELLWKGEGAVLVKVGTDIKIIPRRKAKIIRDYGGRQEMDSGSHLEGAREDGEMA

B1: GAL4AC (other, UniProt P04386 768-881, looked up)
chain: ANFNQSGNIADSSLSFTFTNSSNGPNLITTQTNSQALSQPIASSNVHDNFMNNEITASKIDDGNNSKPLSPGWTDQTAYNAFGITTGMFNTTTMDDVYNYLFDDEDTPPNPKKE
notes: Negative control of the two-hybrid assay; also called GAL4AC alone
B2: GAL4-AC fusion of S6 mutant E3 (other)
chain: PEVLVPIRLDMEIDGQKLRDAFTWNMNEKLMTPEMFSEILCGDLDLNPLTFVPAIASAIRQQIESYPTDSILEDQSDQRVIIKLNIHVGNISLVDQFEWDMSEKENSPEKFA
notes: also called pGADNot-E3
B3: GAL4-AC fusion of S6 mutant E10 (other)
chain: B2 chain with G42D, D45G
B4: GAL4-AC fusion of S6 mutant E4 (other)
chain: B2 chain with T32A, G42D
B5: LexADB (other, UniProt P0A7C2 1-87, looked up)
chain: MKALTARQQEVFDLIRDHISQTGMPPTRAEIAQRLGFRSPNAAEEHLKALARKGVIEIVSGASRGIRLLQEEEEGLPLVGRVAAGEP
notes: Negative control of the two-hybrid assay; also called LexADB alone

How the values were obtained:
LexADB-IN-1 [1] = target: T2, LexADB-IN-1 (HIV-1, UniProt P0A7C2 1-87; P04585 1148-1435); assay: yeast two-hybrid, β-Gal staining
T2 construct: Yeast two-hybrid fusion

LexADB-INI1/hSNF5 = target: T3, LexADB-INI1/hSNF5 (human, UniProt P0A7C2 1-87 (Escherichia coli entry), limits assumed); assay: yeast two-hybrid, β-Gal staining
T3 construct: also called pSH2-INI1

LexADB-IN-1 [2] = target: T2, LexADB-IN-1; assay: reverse yeast two-hybrid, X-Gal staining
GAL4AC-IN-1 = target: T4, GAL4AC-IN-1 (HIV-1, UniProt P04585 1148-1435); assay: yeast two-hybrid, β-Gal staining
T4 construct: domain: integrase

GAL4AC-IN-2 = target: T1, GAL4AC-IN-2; assay: yeast two-hybrid, β-Gal staining
GAL4AC = target: B1; assay: yeast two-hybrid, β-Gal staining

B1: no binding (LexADB-IN-1 [1]); no binding (LexADB-INI1/hSNF5).

B2: no binding (LexADB-IN-1 [2]).

B3: no binding (LexADB-IN-1 [2]).

B4: no binding (LexADB-IN-1 [2]).

B5: no binding (GAL4AC-IN-1); no binding (GAL4AC-IN-2); no binding (GAL4AC).
